Assay results published in US20210087270A1 (INNATE PHARMA, published 2021).
One block for each binder: values may come before it.

What was measured:
[1] = biological target: T1, human KIR3DL2 (CD158k), wild type, at the cell surface (human, UniProt P43630 22-455); assay: cell-based or functional assay
[2] = biological target: T1, human KIR3DL2 (CD158k), wild type, at …; assay: flow cytometry on HUT78 cells after 20 h at 37°C; bound antibody detected with goat anti-human IgG Fc-PE (MdFI GaH-PE); the box prints no unit, the concentration axis is in µg/ml
Experimental: (§1) This study aimed to evaluate the impact of a 20 hour incubation with antibody 2B12 on cell surface KIR3DL2 level by observing the amount of bound 2B12 (human IgG1), free (non-antibody bound) cell surface KIR3DL2 polypeptide, and total cell surface KIR3DL2 polypeptide. Briefly, HUT78 (100,000 cells/well) were incubated for 20h at 37° C. with a dose range of 2B12 antibody starting from (decreasing) 8.88 μg/ml, 1/3 serial dilution, 11 concentrations. Dose ranges were made in duplicate in order to perform the following 2 staining conditions: [0317] Total KIR3DL2+bound KIR3DL2 (GaH IgG Fc-PE+mAb2-APC (a non-competing anti-KIR3LD2 mAb) (10 μg/ml) [0318] Free KIR3DL2: 2B12-PE (10 μg/ml).
(§2) Staining was performed at 4° C. in staining buffer for 1h and analyzed with a FACS Canto 11 HTS. The dark line/squares represents antibody 2B12 while the light line/circles represents isotype control. It can be seen that free KIR3DL2 receptors can be detected when incubating cells with 10 μg/ml of 2B12-PE and detecting free receptors with non-competing anti-KIR3DL2 antibody. It can be seen that 2B12-bound KIR3DL2 receptors can be detected by incubating cells with goat anti-human IgG Fc-PE secondary Ab. Both read-outs were correlated, with similar EC₅₀. […]

[3] = biological target: T1, human KIR3DL2 (CD158k), wild type, at …; assay: panel Free KIR3DL2 - 2B12-PE: flow cytometry on HUT78 cells after 1 h at 37°C with unlabelled 2B12; loss of free KIR3DL2 detected with 2B12-PE at 10 µg/ml, the concentration axis is in µg/ml
Experimental: (§3) This study aimed to evaluate the dynamics of KIR3DL2 receptor expression by observing the amount of total, free and 2B12-bound KIR3DL2 after different periods of incubation with antibody 2B12. Briefly, HUT78 cells (50,000 cells/well) were incubated for 1h, 24h or 48h at 37° C. in complete medium with 2B12 (human IgG1), dose range starting from 10 μg/ml (decreasing), 1/3 serial dilution, 11 concentrations, or with isotype control (IC), dose range starting (decreasing) from 10 μg/ml, 1/3 serial dilution, 11 concentrations. Dose ranges were made in triplicate in order to perform 3 staining conditions: [0323] Bound KIR3DL2 (30 min at 4° C.): GaH IgG Fc-PE, [0324] Free KIR3DL2+total KIR3DL2 (1h at 4° C.): 2B12-PE (10 μg/ml)+mAb2-APC (non-competing anti-KIR3DL2) (10 μg/ml), [0325] Total KIR3DL2 (1h+30 min at 4° C.): 2B12 (10 μg/ml)+GaH IgG Fc-PE.

[4] = biological target: T1, human KIR3DL2 (CD158k), wild type, at …; assay: flow cytometry on live HUT78 cells, 24 h at 37°C in RPMI10%, detection with anti-human-Fc PE, median of fluorescence
Experimental: (§4) This study aimed to evaluate the impact of staining conditions on 2B12 labelling of KIR3DL2-expressing cells, gated on total cells, at 4° C. or 37° C., and with incubation times of 2 hours, 4 hours or 24 hours. Briefly, 100,000 HUT78 cells per well were incubated with a dose range of 2B12 antibody starting from 0.0005 μg/ml to 30 μg/ml (serial dilution 1/3 in complete medium). The protocol used was as follows: incubation 2H; 4H and overnight at 4° C. and 37°; staining in RPMI 10% with or without PFA fixation; 2 washes in SB (150 μl/w); addition of anti-human-Fc PE for 30 min at 4° C.; 2 washes in SB (100 μl/w); and detection using FACS CANTO II.

[5] = biological target: T1, human KIR3DL2 (CD158k), wild type, at …; assay: panel Bound KIR3DL2 - GaH-PE: flow cytometry on HUT78 cells after 24 h at 37°C with 2B12; bound antibody detected with goat anti-human IgG Fc-PE, the concentration axis is in µg/ml
Experimental: as §3

[6] = biological target: T1, human KIR3DL2 (CD158k), wild type, at …; assay: panel Bound KIR3DL2 - GaH-PE: flow cytometry on HUT78 cells after 48 h at 37°C with 2B12; bound antibody detected with goat anti-human IgG Fc-PE, the concentration axis is in µg/ml
Experimental: as §3

[7] = biological target: T1, human KIR3DL2 (CD158k), wild type, at …; assay: cell-based or functional assay; remark: listed apart in the source
[8] = biological target: T1, human KIR3DL2 (CD158k), wild type, at …; assay: flow cytometry on live HUT78 cells, 4 h at 37°C in RPMI10%, detection with anti-human-Fc PE, median of fluorescence
Experimental: as §4

[9] = biological target: T1, human KIR3DL2 (CD158k), wild type, at …; assay: flow cytometry on live HUT78 cells, 2 h at 37°C in RPMI10%, detection with anti-human-Fc PE, median of fluorescence
Experimental: as §4

[10] = biological target: T1, human KIR3DL2 (CD158k), wild type, at …; assay: panel Free KIR3DL2 - 2B12-PE: flow cytometry on HUT78 cells after 24 h at 37°C with unlabelled 2B12; loss of free KIR3DL2 detected with 2B12-PE at 10 µg/ml, the concentration axis is in µg/ml
Experimental: as §3

[11] = biological target: T1, human KIR3DL2 (CD158k), wild type, at …; assay: flow cytometry on live HUT78 cells, 24 h at 4°C in RPMI10%, detection with anti-human-Fc PE, median of fluorescence
Experimental: as §4

[12] = biological target: T1, human KIR3DL2 (CD158k), wild type, at …; assay: panel Free KIR3DL2 - 2B12-PE: flow cytometry on HUT78 cells after 48 h at 37°C with unlabelled 2B12; loss of free KIR3DL2 detected with 2B12-PE at 10 µg/ml, the concentration axis is in µg/ml
Experimental: as §3

[13] = biological target: T1, human KIR3DL2 (CD158k), wild type, at …; assay: flow cytometry on HUT78 cells after 20 h at 37°C with unlabelled antibody; loss of free KIR3DL2 detected with PE-labelled 2B12 (IPH4102-PE on the sheet) at 10 µg/ml; the box prints no unit, the concentration axis is in µg/ml
Experimental: as §1, §2

KIR3DL1 (CD158e1) = biological target: T2, KIR3DL1 (CD158e1) (UniProt P43629 22-444, limits assumed); assay: hybridoma screening (flow cytometry, incl. HEK-293T/KIR3DL1 Domain 0-eGFP)
T2 construct: also called closely related KIR3DL1
Experimental: Antibodies which bind KIR3DL2 but not closely related KIR3DL1 were generated by immunizing mice with recombinant KIR3DL2-Fc fusion protein, described in US patent publication number US-2015-0232556-A1. Supernatant (SN) of the growing hybridomas were tested by flow cytometry on Sezary Syndrome cell lines (HUT78, COU-L) and HEK-293T/KIR3DL2 Domain 0-eGFP. Potentially interesting hybridomas selected from the initial screening were cloned by limiting dilution techniques in 96-wells plates. The secondary screen involved selection of hybridomas of interest by testing supernatants of the subclones by flow cytometry on HUT78, COU-L, HEK-293T/KIR3DL1 Domain 0-eGFP and HEK-293T/KIR3DL2 Domain 0-eGFP. Positive subclones were injected into mice to produce ascitis and antibodies of interest were purified before being tested in a Biacore assay using rec KIR3DL2 chips, followed by various assays formats based on binding to human KIR3DL2-expressing cells.

[14] = biological target: KIR3DL2 mutant having I60N and G62S substitutions (human, UniProt P43630 22-455); assay: binding to a series of KIR3DL2 mutants
[15] = biological target: KIR3DL2 mutant having P14S, S15A and H23S substitutions (human, UniProt P43630 22-455); assay: binding to a series of KIR3DL2 mutants
KIR3DL2 mutant having P14S, S15A and H23S substitutions, sequence (P43630 other isoform, or with tags, fused parts or gaps P14S S15A H23S P14S S15A H23S): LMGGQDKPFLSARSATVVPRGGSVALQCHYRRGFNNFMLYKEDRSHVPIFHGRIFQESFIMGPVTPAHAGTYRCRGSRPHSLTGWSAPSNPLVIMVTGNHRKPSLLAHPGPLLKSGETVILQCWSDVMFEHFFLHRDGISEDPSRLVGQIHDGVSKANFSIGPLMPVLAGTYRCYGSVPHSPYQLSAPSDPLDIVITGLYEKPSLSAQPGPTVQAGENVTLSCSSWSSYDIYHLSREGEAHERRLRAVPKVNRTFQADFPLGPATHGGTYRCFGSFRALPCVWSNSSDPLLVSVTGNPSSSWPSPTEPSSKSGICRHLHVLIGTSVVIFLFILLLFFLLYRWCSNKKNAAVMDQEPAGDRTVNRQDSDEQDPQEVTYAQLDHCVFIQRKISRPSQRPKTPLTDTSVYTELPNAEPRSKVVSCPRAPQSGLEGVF

T1 sequence (P43630 22-455 E158D): as the sequence (P43630 other isoform, or with tags, fused parts or gaps P14S S15A H23S P14S S15A H23S) above, with S14P, A15S, S23H counted along it
KIR3DL2 mutant having I60N and G62S substitutions, sequence (P43630 other isoform, or with tags, fused parts or gaps I60N G62S I60N G62S): as the sequence (P43630 other isoform, or with tags, fused parts or gaps P14S S15A H23S P14S S15A H23S) above, with S14P, A15S, S23H, I60N, G62S counted along it
T2 sequence (P43629 22-444 limits assumed): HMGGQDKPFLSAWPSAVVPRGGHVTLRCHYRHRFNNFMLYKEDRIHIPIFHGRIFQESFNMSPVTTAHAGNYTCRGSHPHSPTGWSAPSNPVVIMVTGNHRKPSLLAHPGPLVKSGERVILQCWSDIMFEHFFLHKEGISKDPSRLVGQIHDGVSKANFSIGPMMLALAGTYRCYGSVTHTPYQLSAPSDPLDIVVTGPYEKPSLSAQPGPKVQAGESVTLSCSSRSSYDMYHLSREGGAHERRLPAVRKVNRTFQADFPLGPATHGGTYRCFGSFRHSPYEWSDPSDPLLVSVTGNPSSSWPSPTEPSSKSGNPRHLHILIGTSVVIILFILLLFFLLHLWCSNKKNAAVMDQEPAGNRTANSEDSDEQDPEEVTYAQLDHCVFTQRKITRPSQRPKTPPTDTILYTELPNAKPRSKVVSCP

EC50 of the increase of total cell-surface KIR3DL2 on HUT78 cells after 24 h at 37°C, panel Total KIR3DL2 - 2B12+GaH-PE [1]: 0.103 µg/mL
EC50 of the increase of total cell-surface KIR3DL2 on HUT78 cells after 24 h at 37°C, panel Total KIR3DL2 - mAb2-APC [1]: 0.0599 µg/mL
EC50 of the increase of total cell-surface KIR3DL2 on HUT78 cells after 48 h at 37°C, panel Total KIR3DL2 - 2B12+GaH-PE [1]: 0.0454 µg/mL
EC50 of the increase of total cell-surface KIR3DL2 on HUT78 cells after 48 h at 37°C, panel Total KIR3DL2 - mAb2-APC [1]: 0.042 µg/mL
EC50 [2]: 0.059 µg/mL
EC50 [3]: 0.104 µg/mL
EC50 (read off the curve) [4]: ~0.07 µg/mL
EC50 [5]: 0.0566 µg/mL
EC50 [6]: 0.0163 µg/mL
EC50 of the increase of total cell-surface KIR3DL2 on HUT78 cells after 20 h at 37°C, detected with mAb2-APC (axis: MdFI 13E4-APC) [7]: 0.0789 µg/mL
EC50 (read off the curve) [8]: ~0.09 µg/mL
EC50 (read off the curve) [9]: ~0.1 µg/mL
EC50 [10]: 0.0438 µg/mL
EC50 (read off the curve) [11]: ~0.04 µg/mL
EC50 [12]: 0.0178 µg/mL
EC50 [13]: 0.0588 µg/mL
B1: antibody 2B12 (human IgG1) (antibody, V domains shown)
VH: QIQLVQSGPELKKPGETVRISCKASGYTFTTAGMQWVQKTPGKGLKWIGWINSHSGVPKYAEDFKGRFAFSLETSASTAYLQISTLKNEDTATYFCARGGDEGVMDYWGQGTSVTVS
VL: DIVMTQSHKFMSTSLGDRVSFTCKASQDVSTAVAWYQQKPGQSPKLLIYWTSTRHTGVPDRFTGSGSGTDYTLTISSVQAEDLALYYCQQHYSTPWTFGGGTKLEIK
notes: Used as human IgG1 in the HUT78 staining studies (Parts 1-3); also called 2B12-PE

binding result (KIR3DL1 (CD158e1)): no binding
binding result [14]: no binding
binding result [15]: binds
B2: antibody 2B12 (parental, as generated in Example 1) (antibody, V domains shown)
VH: B1 VH
VL: B1 VL
notes: From mouse hybridoma; It was detected with goat anti-mouse antibody in the internalization assay
